Results reported in paper PMC4232992.

Target: Human myeloma IgG1 carbamylated with 0.1 M KCNO for 3 h, heat-aggregated (human)
Test: ELISA

- percent decrease in the deposition of C1q against native IgG1: 60%
Substance: C1q, the first component of the classical complement pathway (complex)
